Experimental data published in patent US12698494.
Substitutions are numbered along the chain they refer to. Numbers in names are those of the source.

T1: FRETS-VWF73 fluorogenic substrate, P04275
T1 chain: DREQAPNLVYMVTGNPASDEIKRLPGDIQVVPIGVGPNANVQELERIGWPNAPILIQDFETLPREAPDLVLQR

B1: ADAMTS13 variant NGLY7 (664EYGNLT669 to 664ENVTLT669; glycan shift from N667 to Y665) (protein)
chain: AAGGILHLELLVAVGPDVFQAHQEDTERYVLTNLNIGAELLRDPSLGAQFRVHLVKMVILTEPEGAPNITANLTSSLLSVCGWSQTINPEDDTDPGHADLVLYITRFDLELPDGNRQVRGVTQLGGACSPTWSCLITEDTGFDLGVTIAHEIGHSFGLEHDGAPGSGCGPSGHVMASDGAAPRAGLAWSPCSRRQLLSLLSAGRARCVWDPPRPQPGSAGHPPDAQPGLYYSANEQCRVAFGPKAVACTFAREHLDMCQALSCHTDPLDQSSCSRLLVPLLDGTECGVEKWCSKGRCRSLVELTPIAAVHGRWSSWGPRSPCSRSCGGGVVTRRRQCNNPRPAFGGRACVGADLQAEMCNTQACEKTQLEFMSQQCARTDGQPLRSSPGGASFYHWGAAVPHSQGDALCRHMCRAIGESFIMKRGDSFLDGTRCMPSGPREDGTLSLCVSGSCRTFGCDGRMDSQQVWDRCQVCGGDNSTCSPRKGSFTAGRAREYVTFLTVTPNLTSVYIANHRPLFTHLAVRIGGRYVVAGKMSISPNTTYPSLLEDGRVEYRVALTEDRLPRLEEIRIWGPLQEDADIQVYRRYGEENVTLTRPDITFTYFQPKPRQAWVWAAVRGPCSVSCGAGLRWVNYSCLDQARKELVETVQCQGSQQPPAWPEACVLEPCPPYWAVGDFGPCSASCGGGLRERPVRCVEAQGSLLKTLPPARCRAGAQQPAVALETCNPQPCPARWEVSEPSSCTSAGGAGLALENETCVPGADGLEAPVTEGPGSVDEKLPAPEPCVGMSCPPGWGHLDATSAGEKAPSPWGSIRTGAQAAHVWTPAAGSCSVSCGRGLMELRFLCMDSALRVPVQEELCGLASKPGSRREVCQAVPCPARWQYKLAACSVSCGRGVVRRILYCARAHGEDDGEEILLDTQCQGLPRPEPQEACSLEPCPPRWKVMSLGPCSASCGLGTARRSVACVQLDQGQDVEVDEAACAALVRPEASVPCLIADCTYRWHVGTWMECSVSCGDGIQRRRDTCLGPQAQAPVPADFCQHLPKPVTVRGCWAGPCVGQGTPSLVPHEEAAAPGRTTATPAGASLEWSQARGLLFSPAPQPRRLLPGPQENSVQSSACGRQHLEPTGTIDMRGPGQADCAVAIGRPLGEVVTLRVLESSLNCSAGDMLLLWGRLTWRKMCRKLLDMTFSSKTNTLVVRQRCGRPGGGVLLRYGSQLAPETFYRECDMQLFGPWGEIVSPSLSPATSNAGGCRLFINVAPHARIAIHALATNMGAGTEGANASYILIRDTHSLRTTAFHGQQVLYWESESSQAEMEFSEGFLKAQASLRGQYWTLQSWVPEMQDPQSWKGKEGT
B2: ADAMTS13 variant NGLY3 + NGLY7 (607GNMSI611/664ENVTLT669) (protein)
chain: B1 chain with K534N
B3: ADAMTS13 variant NGLY3 + NGLY8 (607GNMSI611/667LNVTA671) (protein)
chain: B1 chain with K534N, N591Y, V592G, T593L, L594N, T595V, R596T, P597A
B4: ADAMTS13 variant NGLY8 (667NLTRP671 to 667LNVTA671; glycan shift from N667 to L668) (protein)
chain: B1 chain with N591Y, V592G, T593L, L594N, T595V, R596T, P597A
B5: Full-length ADAMTS13 variant NGLY3 (607GKMSI611 to 607GNMSI611; K608N) (protein)
chain: AAGGILHLELLVAVGPDVFQAHQEDTERYVLTNLNIGAELLRDPSLGAQFRVHLVKMVILTEPEGAPNITANLTSSLLSVCGWSQTINPEDDTDPGHADLVLYITRFDLELPDGNRQVRGVTQLGGACSPTWSCLITEDTGFDLGVTIAHEIGHSFGLEHDGAPGSGCGPSGHVMASDGAAPRAGLAWSPCSRRQLLSLLSAGRARCVWDPPRPQPGSAGHPPDAQPGLYYSANEQCRVAFGPKAVACTFAREHLDMCQALSCHTDPLDQSSCSRLLVPLLDGTECGVEKWCSKGRCRSLVELTPIAAVHGRWSSWGPRSPCSRSCGGGVVTRRRQCNNPRPAFGGRACVGADLQAEMCNTQACEKTQLEFMSQQCARTDGQPLRSSPGGASFYHWGAAVPHSQGDALCRHMCRAIGESFIMKRGDSFLDGTRCMPSGPREDGTLSLCVSGSCRTFGCDGRMDSQQVWDRCQVCGGDNSTCSPRKGSFTAGRAREYVTFLTVTPNLTSVYIANHRPLFTHLAVRIGGRYVVAGNMSISPNTTYPSLLEDGRVEYRVALTEDRLPRLEEIRIWGPLQEDADIQVYRRYGEEYGNLTRPDITFTYFQPKPRQAWVWAAVRGPCSVSCGAGLRWVNYSCLDQARKELVETVQCQGSQQPPAWPEACVLEPCPPYWAVGDFGPCSASCGGGLRERPVRCVEAQGSLLKTLPPARCRAGAQQPAVALETCNPQPCPARWEVSEPSSCTSAGGAGLALENETCVPGADGLEAPVTEGPGSVDEKLPAPEPCVGMSCPPGWGHLDATSAGEKAPSPWGSIRTGAQAAHVWTPAAGSCSVSCGRGLMELRFLCMDSALRVPVQEELCGLASKPGSRREVCQAVPCPARWQYKLAACSVSCGRGVVRRILYCARAHGEDDGEEILLDTQCQGLPRPEPQEACSLEPCPPRWKVMSLGPCSASCGLGTARRSVACVQLDQGQDVEVDEAACAALVRPEASVPCLIADCTYRWHVGTWMECSVSCGDGIQRRRDTCLGPQAQAPVPADFCQHLPKPVTVRGCWAGPCVGQGTPSLVPHEEAAAPGRTTATPAGASLEWSQARGLLFSPAPQPRRLLPGPQENSVQSSACGRQHLEPTGTIDMRGPGQADCAVAIGRPLGEVVTLRVLESSLNCSAGDMLLLWGRLTWRKMCRKLLDMTFSSKTNTLVVRQRCGRPGGGVLLRYGSQLAPETFYRECDMQLFGPWGEIVSPSLSPATSNAGGCRLFINVAPHARIAIHALATNMGAGTEGANASYILIRDTHSLRTTAFHGQQVLYWESESSQAEMEFSEGFLKAQASLRGQYWTLQSWVPEMQDPQSWKGKEGTHHHHHH
B6: Full-length wild-type ADAMTS13 (1427 amino acids) (protein)
chain: B5 chain with N534K
B7: Full-length ADAMTS13 variant NGLY4 (608KMSIS612 to 608KNSTS612) (protein)
chain: B5 chain with N534K, M535N, I537T

Columns and labels:
[1] = biological target: Von Willebrand Factor (VWF) multimers, P04275
[2] = biological target: T1, FRETS-VWF73 fluorogenic substrate, …

Row | Protein | Ability to process VWF multimers under denaturing conditions [1] | vortex assay: processing of VWF multimers under shear stress [1] | Activity level (% relative to wild type ADAMTS13) VWFFRETS73 (% relative to wild type ADAMTS13) [2] | FRETS-VWF73 activity relative to wild-type ADAMTS13 (text value, differs from Table 4) [2] | VWF multimer assay (urea-denatured recombinant VWF) [1] | FRETS-VWF73 activity relative to wild-type ADAMTS13 [2] | vortex assay: processing of VWF multimers under turbulent flow [1]
1 | B1 | +++++ | NGLY7 was clearly capable of processing the large VWF multimers | 125 |  |  |  | 
2 | B2 | +++++ | combination of NGLY3/NGLY7 retained proteolytic activity towards multimeric VWF | 135 | NGLY3 plus NGLY7 was 125% active when compared to the wild type |  |  | 
3 | B3 | ++ | Combinations of NGLY3/NGLY8 also revealed a reduced ability to process VWF multimers | 120 | NGLY3 plus NGLY8 was 75% active when compared to wild type ADAMTS13 |  |  | 
4 | B4 | ++ | NGLY8 displayed a reduced ability to process VWF multimers when compared to NGLY3 and NGLY7 | 76 | NGLY8 was 75% active when compared to wild-type ADAMTS13 |  |  | 
5 | B5 | ++++++ | Under these conditions NGLY3 was fully active | 125 |  | The VWF processing activity of NGLY3 and NGLY4 was similar to that of the wild-type ADAMTS13 | The ability of NGLY1, 2, 3 and 4 was similar or higher when compared to wild-type ADAMTS13 | 
6 | B6 | ++++++ |  | 100 |  |  |  | resulted in loss of the high molecular weight multimers from the sample
7 | B7 |  |  |  |  | The VWF processing activity of NGLY3 and NGLY4 was similar to that of the wild-type ADAMTS13 | The ability of NGLY1, 2, 3 and 4 was similar or higher when compared to wild-type ADAMTS13 | 
